Measurements taken from publication PMC2600739 (The Journal of Cell Biology, 2008).

Molecular target: the molecule itself
Assay: cross-linking

B1: JAM-L–HA (p513-JAM-L-HA vector), wild type (natural protein, human, UniProt Q86YT9 20-394, looked up)
chain: LNDLNVSPPELTVHVGDSALMGCVFQSTEDKCIFKIDWTLSPGEHAKDEYVLYYYSNLSVPIGRFQNRVHLMGDILCNDGSLLLQDVQEADQGTYICEIRLKGESQVFKKAVVLHVLPEEPKELMVHVGGLIQMGCVFQSTEVKHVTKVEWIFSGRRAKEEIVFRYYHKLRMSVEYSQSWGHFQNRVNLVGDIFRNDGSIMLQGVRESDGGNYTCSIHLGNLVFKKTIVLHVSPEEPRTLVTPAALRPLVLGGNQLVIIVGIVCATILLLPVLILIVKKTCGNKSSVNSTVLVKNTKKTNPEIKEKPCHFERCEGEKHIYSPIIVREVIEEEEPSEKSEATYMTMHPVWPSLRSDRNNSLEKKSGGGMPKTQQAF
stoichiometry N: 2
